# Test results: patent publication US6008029A, “Purified coprinus laccases and nucleic acids encoding the same” (Novo Nordisk Biotech Inc., priority 1996, dated 1999)
# B1: recombinant Coprinus cinereus laccase Lcc1 (SEQ ID NO:27), expressed in Aspergillus oryzae (Coprinopsis cinerea) (protein)
# chain: QIVNSVDTMTLTNANVSPDGFTRAGILVNGVHGPLIRGGKNDNFELNVVNDLDNPTMLRPTSIHWHGLFQRGTNWADGADGVNQCPISPGHAFLYKFTPAGHAGTFWYHSHFGTQYCDGLRGPMVIYDDNDPHAALYDEDDENTIITLADWYHIPAPSIQGAAQPDATLINGKGRYVGGPAAELSIVNVEQGKKYRMRLISLSCDPNWQFSIDGHELTIIEVDGQLTEPHTVDRLQIFTGQRYSFVLDANQPVDNYWIRAQPNKGRNGLAGTFANGVNSAILRYAGAANADPTTSANPNPAQLNEADLHALIDPAAPGIPTPGAADVNLRFQLGFSGGRFTINGTAYESPSVPTLLQIMSGAQSANDLLPAGSVYELPRNQVVELVVPAGVLGGPHPFHLHGHAFSVVRSAGSSTYNFVNPVKRDVVSLGVTGDEVTIRFVTDNPGPWFFHCHIEFHLMNGLAIVFAEDMANTVDANNPPVEWAQLCEIYDDLPPEATSIQTVVRRAEPTGFSAKFRREGL
# Assays:
# [1] = substrate: CCn1c(=NN=c2sc3cc(S(=O)(=O)O)ccc3n2CC)sc2cc(S(=O)(=O)O)ccc21; test: purified protein, by the assay type; conditions: other: pH 5.3, ABTS oxidation, 20.0 °C
# [2] = substrate: COc1cc(C=NN=Cc2cc(OC)c(O)c(OC)c2)cc(OC)c1O; test: purified protein, by the assay type; format: biochemical, Coprinus cinereus; conditions: other: pH 5.3, syringaldazine oxidation, 20.0 °C
# Method: Laccase activity is determined by syringaldazine oxidation. Specifically, 60 μl of syringaldazine stock solution (0.28 mM in 50% ethanol) and 20 μl of laccase sample are mixed with 0.8 ml of preheated Britton-Robinson buffer solution and incubated at 20° C. The oxidation is monitored at 530 nm over 5 minutes and activity is expressed as "SOU" μmole syringaldazine oxidized per minute ("SOU"). Britton-Robinson buffers with various pHs are used.
# The values for Km and kcat are determined by fitting initial rates (v=ΔA/Δt/Δe; Δe: extinction coefficient change), laccase concentration (E), and substrate concentration (S) into v=kcat *E*S/(Km +S) with the Prizm nonlinear regression software (GraphPad, San Diego, Calif.).
protein,measurement,setting,value
B1,Km,[1],23 ± 3 µM
same,kcat,[1],18.17 ± 0.5 s⁻¹
same,Km,[2],26 ± 6 µM
same,kcat,[2],3 ± 0.333 s⁻¹
